Values belong to the binder of their own block, whether it stands above or below them. Where no end group is shown, it is not given here.
B2: CREBBP bromodomain (domain or fragment, human)
chain: RKKIFKPEELRQALMPTLEALYRQDPESLPFRQPVDPQLLGIPDYFDIVKNPMDLSTIKRKLDTGQYQEPWQYVDDVWLMFNNAWLYNRKTSRVYKFCSKLAEVFEQEIDPVMQSLG
notes: the crystallised construct may differ; also called CBP; KAT3A; source: E. coli BL21(DE3), purified (Ni-NTA, TEV, SEC)
B5: BRD3(2), second bromodomain of BRD3 (domain or fragment, human)
chain: GKLSEHLRYCDSILREMLSKKHAAYAWPFYKPVDAEALELHDYHDIIKHPMDLSTVKRKMDGREYPDAQGFAADVRLMFSNCYKYNPPDHEVVAMARKLQDVFEMRFAKMP
notes: BRD3, human, second bromodomain; the crystallised construct may differ; source: E. coli BL21(DE3), purified (Ni-NTA, TEV, SEC)

Columns and labels:
Details in all cases: both partners purified
CREBBP bromodomain = molecular target: B2; test: ITC; peptide (mM stock) titrated into bromodomain (about 50 μM), by the concentrations in the tables; 10 or 15°C, 50 mM HEPES pH 7.5, 150 mM NaCl; single binding site model
[1] = molecular target: T1, H3K14 peptide KSTGGKacAPRKQY (human, acetyl-lysine at K14 (residue 6 of the peptide)); test: as above
T1 construct: histone H3, human; source: synthetic peptide

FALZ bromodomain [2] = molecular target: FALZ bromodomain (human, UniProt Q12830 2914-3037); test: as above
[3] = molecular target: T2, H4K12/16/20 peptide GKacGGAKacRHRKacV (human, acetyl-lysine at K12, K16 and K20 (residues 2, 6 and 10 of the peptide)); test: ITC; as a1; rows with N of about 0.5 or 0.25: two or more bromodomains on one peptide, apparent binding constants, events not deconvoluted
T2 construct: histone H4, human; source: synthetic peptide

EP300 bromodomain = molecular target: T3, EP300 bromodomain (human, UniProt Q09472 1040-1161); test: ITC; peptide (mM stock) titrated into bromodomain (about 50 μM), by the concentrations in the tables; 10 or 15°C, 50 mM HEPES pH 7.5, 150 mM NaCl; single binding site model
T3 construct: the crystallised construct may differ; also called KAT3B; source: E. coli BL21(DE3), purified (Ni-NTA, TEV, SEC)
T3 sequence: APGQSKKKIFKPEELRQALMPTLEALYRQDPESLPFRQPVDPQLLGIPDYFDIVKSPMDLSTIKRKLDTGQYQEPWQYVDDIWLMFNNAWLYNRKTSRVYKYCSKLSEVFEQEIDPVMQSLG

[4] = molecular target: T4, H3K9 peptide KQTARKacSTGGKY (human, acetyl-lysine at K9 (residue 6 of the peptide)); test: as above
T4 construct: histone H3, human; source: synthetic peptide

[5] = molecular target: T1, H3K14 peptide KSTGGKacAPRKQY; test: as above; remark: listed apart in the source
[6] = molecular target: T5, H4K8 peptide RGKGGKacGLGKGY (human, acetyl-lysine at K8 (residue 6 of the peptide)); test: as above
T5 construct: histone H4, human; source: synthetic peptide

FALZ bromodomain [7] = molecular target: FALZ bromodomain (human, UniProt Q12830 2914-3037); test: as above; remark: listed apart in the source
[8] = molecular target: B5; test: as above

B1: H2BK85 peptide AHYNKacRSTITSRE (peptide)
peptide: AHYNK(Ac)RSTITSRE
notes: histone H2B, human; source: synthetic peptide
Kd (CREBBP bromodomain): 66.2 ± 3.8 µM
stoichiometry N (CREBBP bromodomain): 0.98 ± 0.059

Binder: B2
Kd [1]: 734 ± 90.6 µM

Binder: B5
Kd [3]: 61.3 ± 1.9 µM

B7: H3K56 peptide GTVALREIRRYQKacS (peptide)
peptide: GTVALREIRRYQK(Ac)S
notes: histone H3, human; source: synthetic peptide
Kd (EP300 bromodomain): 13.4 ± 0.5 µM
stoichiometry N (EP300 bromodomain): 0.98 ± 0.009
Kd (CREBBP bromodomain): 21.3 ± 1.4 µM
stoichiometry N (CREBBP bromodomain): 0.96 ± 0.025

B9: H3K36 peptide ATGGVKacKPHRY (peptide)
peptide: ATGGVK(Ac)KPHRY
notes: histone H3, human; the last Y is Y41 of H3; source: synthetic peptide
stoichiometry N (EP300 bromodomain): 1 ± 0.044
Kd (CREBBP bromodomain): 71.4 ± 1 µM
stoichiometry N (CREBBP bromodomain): 1

B13: H3K18 peptide GKAPRKacQLATKY (peptide)
peptide: GKAPRK(Ac)QLATKY
notes: as for B7
Kd [8]: 67.1 ± 4.5 µM
stoichiometry N [8]: 1.06 ± 0.068

Now from value to binder:

Kd (CREBBP bromodomain): 13.8 ± 0.4 µM
stoichiometry N (CREBBP bromodomain): 0.97 ± 0.013
B3: H3K56 peptide IRRYQKacSTELLY (peptide)
peptide: IRRYQK(Ac)STELLY
notes: as for B7

Kd (FALZ bromodomain [2]): 175 ± 13.3 µM
stoichiometry N (FALZ bromodomain [2]): 1 ± 0.17
B4: H4K5 peptide SGRGKacGGKGLY (peptide)
peptide: SGRGK(Ac)GGKGLY
notes: histone H4, human; source: synthetic peptide

Kd (EP300 bromodomain): 132 ± 6.3 µM
stoichiometry N (EP300 bromodomain): 0.97 ± 0.088
Kd (CREBBP bromodomain): 82 ± 3.8 µM
stoichiometry N (CREBBP bromodomain): 1.06 ± 0.01
B6: H4K44 peptide GGVKacRISGLI (peptide)
peptide: GGVK(Ac)RISGLI
notes: as for B4

Kd [1]: 43.9 ± 0.8 µM
Kd [4]: 189 ± 11.6 µM
B8: CECR2 bromodomain (domain or fragment)
chain: not shown
notes: CECR2, human, bromodomain; the crystallised construct may differ; source: E. coli BL21(DE3), purified (Ni-NTA, TEV, SEC)

Kd [5]: 188 ± 14.6 µM
B10: PCAF bromodomain (domain or fragment, human)
chain: GKEKSKEPRDPDQLYSTLKSILQQVKSHQSAWPFMEPVKRTEAPGYYEVIRFPMDLKTMSERLKNRYYVSKKLFMADLQRVFTNCKEYNPPESEYYKCANILEKFFFSKIKEAGLID
notes: P300/CBP-associated factor, human, bromodomain; the crystallised construct may differ; also called KAT2B; source: E. coli BL21(DE3), purified (Ni-NTA, TEV, SEC)

Kd [6]: 150 ± 6.4 µM
B11: KIAA1240 bromodomain (domain or fragment, human)
chain: MEDQEENTLRELRLFLRDVTKRLATDKRFNIFSKPVDIEEVSDYLEVIKEPMDLSTVITKIDKHNYLTAKDFLKDIDLICSNALEYNPDKDPGDKIIRHRACTLKDTAHAIIAAELDPEFNKLCEEIKEARIKRG
notes: KIAA1240 protein, human, bromodomain; the crystallised construct may differ; also called ATAD2B; source: E. coli BL21(DE3), purified (Ni-NTA, TEV, SEC)

Kd (FALZ bromodomain [7]): 3.1 ± 0.1 µM
stoichiometry N (FALZ bromodomain [7]): 1
Binder: RRRRRK(Ac)RRRRRY [poly-R peptide RRRRRKacRRRRRY]

Kd (CREBBP bromodomain): 25.3 ± 0.6 µM
stoichiometry N (CREBBP bromodomain): 1 ± 0.099
B12: H4K44 peptide RRGGVKacRISGLY (peptide)
peptide: RRGGVK(Ac)RISGLY
notes: as for B4
